Laboratory results from patent US20140161800A1 (APTEVO RESEARCH AND DEVELOPMENT, published 2014).

Tests used:
[1] = target: T1, prostate-specific membrane antigen (PSMA) (human, UniProt Q04609 1-750); test: flow cytometry on PSMA+ prostate cancer cells (FIG. 1)
T1 construct: whole, on cells; also called glutamate carboxypeptidase II; N-acetylated alpha-linked acidic dipeptidase 1

[2] = target: T1, prostate-specific membrane antigen …; test: flow cytometry on PSMA+ C4-2 cells (FIG. 2A)
Method: (§1) A typical experiment would label 300,000 cells per well with a range of 200 nM to 0.1 nM binding molecule in 100 ul of FACS buffer (PBS+2% normal goat serum+2% fetal bovine serum+0.1% sodium azide) on ice, followed by washes and incubation with fluorescently-labeled secondary antibody, goat anti-human IgG (1:400 dilution of Invitrogen #11013=5 ug/ml). After washing secondary antibody off cells, cells were incubated with 7-Aminoactinomycin D (7-AAD) staining solution (BD Pharmingen™ cat#559925) (6 ul of 7AAD to 100 ul of FACS Buffer) for 20 minutes. Signal from bound molecules was detected using a FACSCalibur™ flow cytometer (BD Biosciences) and analyzed by FlowJo flow cytometry analysis software. 7-AAD+ cells were excluded from analysis. Nonlinear regression analysis to determine EC50s was performed in GraphPad Prism® graphing and statistics software.

[3] = target: T1, prostate-specific membrane antigen …; test: flow cytometry on PSMA+ C4-2 cells (FIG. 2B)
Method: as §1

T1 sequence (Q04609 whole entry): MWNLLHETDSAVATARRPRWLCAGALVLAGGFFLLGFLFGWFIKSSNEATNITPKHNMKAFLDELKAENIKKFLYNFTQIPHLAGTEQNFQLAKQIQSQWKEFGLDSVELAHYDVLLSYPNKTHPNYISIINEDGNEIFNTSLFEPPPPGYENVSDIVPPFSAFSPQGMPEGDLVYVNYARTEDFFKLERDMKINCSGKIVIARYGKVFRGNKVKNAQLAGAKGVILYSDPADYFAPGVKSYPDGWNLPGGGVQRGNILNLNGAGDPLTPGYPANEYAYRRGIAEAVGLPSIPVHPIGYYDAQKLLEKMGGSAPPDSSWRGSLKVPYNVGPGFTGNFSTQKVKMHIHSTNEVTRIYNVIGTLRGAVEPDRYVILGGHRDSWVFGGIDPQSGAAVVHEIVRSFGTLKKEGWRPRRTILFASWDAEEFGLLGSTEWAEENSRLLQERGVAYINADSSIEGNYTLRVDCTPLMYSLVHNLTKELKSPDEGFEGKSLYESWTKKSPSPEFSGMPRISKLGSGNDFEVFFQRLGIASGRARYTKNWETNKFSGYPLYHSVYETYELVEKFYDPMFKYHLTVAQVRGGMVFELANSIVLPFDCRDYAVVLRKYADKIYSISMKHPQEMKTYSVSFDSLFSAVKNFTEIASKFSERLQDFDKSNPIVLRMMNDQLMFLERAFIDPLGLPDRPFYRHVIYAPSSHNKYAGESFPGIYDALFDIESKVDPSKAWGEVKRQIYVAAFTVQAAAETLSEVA

Row | Binder | binding result [1] | binding result [2] | binding result [3]
1 | TSC085 chimeric SMIP (murine 107-1A4 VL-VH scFv-human Fc) (Fc fusion, scFv-hinge-Fc) DVQITQSPSYLAASPGETITINCRASKSISKYLAWYQEKPGKANKLLIHSGSTLQSGIPSRFSGSGSGTDFTLTISSLEPEDFAMYYCQQHIEYPWTFGGGTKLEIKRAGGGGSGGGGSSGGGGSEIQLQQSGPELVKPGASVKMSCKASGYTFTDYYMHWVKQNNGESLEWIGYFNPYNDYTRYNQNFNGKATLTVDKSSSTAYMQLNSLTSEDSAFYYCARSDGYYDAMDYWGQGTSVTVSSSEPKSSDKTHTCPPCPAPEAAGAPSVFLFPPKPKDTLMISRTPEVTCVVVDVSHEDPEVKFNWYVDGVEVHNAKTKPREEQYNSTYRVVSVLTVLHQDWLNGKAYACAVSNKALPAPIEKTISKAKGQPREPQVYTLPPSRDELTKNQVSLTCLVKGFYPSDIAVEWESNGQPENNYKTTPPVLDSDGSFFLYSKLTVDKSRWQQGNVFSCSVMHEALHNHYTQKSLSLSPGK | binds | – | –
2 | TSC188 humanized SMIP (107-1A4 VL-VH#1 scFv-Fc) (Fc fusion, scFv-hinge-Fc) DIQMTQSPSAMSASVGDRVTITCRASKSISKYLAWFQQKPGKVPKLRIHSGSTLQSGVPSRFSGSGSGTEFTLTISSLQPEDFATYYCQQHIEYPWTFGQGTKVEIKRGGGGSGGGGSGGGGSEVQLVQSGAEVKKPGATVKISCKASGYTFTDYYMHWVQQAPGKGLEWMGYFNPYNDYTRYAEKFQGRVTITADTSTDTAYMELSSLRSEDTAVYYCARSDGYYDAMDYWGQGTTVTVSSSEPKSSDKTHTCPPCPAPEAAGAPSVFLFPPKPKDTLMISRTPEVTCVVVDVSHEDPEVKFNWYVDGVEVHNAKTKPREEQYNSTYRVVSVLTVLHQDWLNGKAYACAVSNKALPAPIEKTISKAKGQPREPQVYTLPPSRDELTKNQVSLTCLVKGFYPSDIAVEWESNGQPENNYKTTPPVLDSDGSFFLYSKLTVDKSRWQQGNVFSCSVMHEALHNHYTQKSLSLSPGK | – | binds | –
3 | TSC189 humanized SMIP (107-1A4 VL-VH#2 scFv-Fc) (Fc fusion, scFv-hinge-Fc) DIQMTQSPSAMSASVGDRVTITCRASKSISKYLAWFQQKPGKVPKLRIHSGSTLQSGVPSRFSGSGSGTEFTLTISSLQPEDFATYYCQQHIEYPWTFGQGTKVEIKRGGGGSGGGGSGGGGSQVQLVQSGAEVKKPGASVKVSCKASGYTFTDYYMHWVRQAPGQGLEWMGYFNPYNDYTRYAQKFQGRVTMTRDTSISTAYMELSSLRSDDTAVYYCARSDGYYDAMDYWGQGTTVTVSSSEPKSSDKTHTCPPCPAPEAAGAPSVFLFPPKPKDTLMISRTPEVTCVVVDVSHEDPEVKFNWYVDGVEVHNAKTKPREEQYNSTYRVVSVLTVLHQDWLNGKAYACAVSNKALPAPIEKTISKAKGQPREPQVYTLPPSRDELTKNQVSLTCLVKGFYPSDIAVEWESNGQPENNYKTTPPVLDSDGSFFLYSKLTVDKSRWQQGNVFSCSVMHEALHNHYTQKSLSLSPGK | – | binds | –
4 | TSC194 Scorpion (huVL-VH#2 107-1A4 scFv-Fc-Cris7 scFv) (bispecific antibody, also called humanized SCORPION molecule) DIQMTQSPSAMSASVGDRVTITCRASKSISKYLAWFQQKPGKVPKLRIHSGSTLQSGVPSRFSGSGSGTEFTLTISSLQPEDFATYYCQQHIEYPWTFGQGTKVEIKRGGGGSGGGGSGGGGSQVQLVQSGAEVKKPGASVKVSCKASGYTFTDYYMHWVRQAPGQGLEWMGYFNPYNDYTRYAQKFQGRVTMTRDTSISTAYMELSSLRSDDTAVYYCARSDGYYDAMDYWGQGTTVTVSSSEPKSSDKTHTCPPCPAPEAAGAPSVFLFPPKPKDTLMISRTPEVTCVVVDVSHEDPEVKFNWYVDGVEVHNAKTKPREEQYNSTYRVVSVLTVLHQDWLNGKAYACAVSNKALPAPIEKTISKAKGQPREPQVYTLPPSRDELTKNQVSLTCLVKGFYPSDIAVEWESNGQPENNYKTTPPVLDSDGSFFLYSKLTVDKSRWQQGNVFSCSVMHEALHNHYTQKSLSLSPGQRHNNSSLNTGTQMAGHSPNSQVQLVQSGGGVVQPGRSLRLSCKASGYTFTRSTMHWVRQAPGKGLEWIGYINPSSAYTNYNQKFKDRFTISADKSKSTAFLQMDSLRPEDTGVYFCARPQVHYDYNGFPYWGQGTPVTVSSGGGGSGGGGSGGGGSAQDIQMTQSPSSLSASVGDRVTMTCSASSSVSYMNWYQQKPGKAPKRWIYDSSKLASGVPARFSGSGSGTDYTLTISSLQPEDFATYYCQQWSRNPPTFGGGTKLQITR | – | – | binds
5 | TSC199 Scorpion (huVL-VH#1 107-1A4 scFv-Fc-Cris7 scFv) (bispecific antibody, also called humanized SCORPION molecule) DIQMTQSPSAMSASVGDRVTITCRASKSISKYLAWFQQKPGKVPKLRIHSGSTLQSGVPSRFSGSGSGTEFTLTISSLQPEDFATYYCQQHIEYPWTFGQGTKVEIKRGGGGSGGGGSGGGGSEVQLVQSGAEVKKPGATVKISCKASGYTFTDYYMHWVQQAPGKGLEWMGYFNPYNDYTRYAEKFQGRVTITADTSTDTAYMELSSLRSEDTAVYYCARSDGYYDAMDYWGQGTTVTVSSSEPKSSDKTHTCPPCPAPEAAGAPSVFLFPPKPKDTLMISRTPEVTCVVVDVSHEDPEVKFNWYVDGVEVHNAKTKPREEQYNSTYRVVSVLTVLHQDWLNGKAYACAVSNKALPAPIEKTISKAKGQPREPQVYTLPPSRDELTKNQVSLTCLVKGFYPSDIAVEWESNGQPENNYKTTPPVLDSDGSFFLYSKLTVDKSRWQQGNVFSCSVMHEALHNHYTQKSLSLSPGQRHNNSSLNTGTQMAGHSPNSQVQLVQSGGGVVQPGRSLRLSCKASGYTFTRSTMHWVRQAPGKGLEWIGYINPSSAYTNYNQKFKDRFTISADKSKSTAFLQMDSLRPEDTGVYFCARPQVHYDYNGFPYWGQGTPVTVSSGGGGSGGGGSGGGGSAQDIQMTQSPSSLSASVGDRVTMTCSASSSVSYMNWYQQKPGKAPKRWIYDSSKLASGVPARFSGSGSGTDYTLTISSLQPEDFATYYCQQWSRNPPTFGGGTKLQITR | – | – | binds
6 | TSC092 chimeric SMIP (murine 107-1A4 VH-VL scFv-human Fc) (Fc fusion, scFv-hinge-Fc) EIQLQQSGPELVKPGASVKMSCKASGYTFTDYYMHWVKQNNGESLEWIGYFNPYNDYTRYNQNFNGKATLTVDKSSSTAYMQLNSLTSEDSAFYYCARSDGYYDAMDYWGQGTSVTVSSGGGGSGGGGSSGGGGSDVQITQSPSYLAASPGETITINCRASKSISKYLAWYQEKPGKANKLLIHSGSTLQSGIPSRFSGSGSGTDFTLTISSLEPEDFAMYYCQQHIEYPWTFGGGTKLEIKRASSEPKSSDKTHTCPPCPAPEAAGAPSVFLFPPKPKDTLMISRTPEVTCVVVDVSHEDPEVKFNWYVDGVEVHNAKTKPREEQYNSTYRVVSVLTVLHQDWLNGKAYACAVSNKALPAPIEKTISKAKGQPREPQVYTLPPSRDELTKNQVSLTCLVKGFYPSDIAVEWESNGQPENNYKTTPPVLDSDGSFFLYSKLTVDKSRWQQGNVFSCSVMHEALHNHYTQKSLSLSPGK | binds | – | –
